According to the Human Domainome abundance scans (Beltran et al. 2025):
± gives the uncertainty stated by the source.

B1: DnaJ homolog subfamily C member 5, residues 16 to 77; numbered along this chain, Q9H3Z4 (parent)
chain: LYHVLGLDKNATSDDIKKSYRKLALKYHPDKNPDNPEAADKFKEINNAHAILTDATKRNIYD

Variants of: B1
Assay: abundance fitness (aPCA) (normalised: wild type 0, dead -1); higher = more abundant; growth selection in yeast, the domain comes from the species named
Details: Homo sapiens

Which abundance fitness does the source give for LYHVLGLDKNATSDDIKKSYRKLAHKYHPDKNPDNPEAADKFKEINNAHAILTDATKRNIYD [L25H] here?
The abundance fitness was -0.442 ± 0.23.

With LYHVLGLDKNATSDDIKKSYRKLAKKYHPDKNPDNPEAADKFKEINNAHAILTDATKRNIYD [L25K] as the variant, how does the abundance fitness read?
Its abundance fitness is -0.159 ± 0.22.

Which abundance fitness does the source give for LYHVLGLDKNATSDDIKKSYRKLANKYHPDKNPDNPEAADKFKEINNAHAILTDATKRNIYD [L25N] here?
The abundance fitness was -0.073 ± 0.11.

Which abundance fitness does the source give for LYHVLGLDKNATSDDIKKSYRKLAWKYHPDKNPDNPEAADKFKEINNAHAILTDATKRNIYD [L25W] here?
The abundance fitness was -0.346 ± 0.088.

Which abundance fitness does the source give for LYHVLGLDKNATSDDIKKSYRKLAEKYHPDKNPDNPEAADKFKEINNAHAILTDATKRNIYD [L25E] here?
Its abundance fitness is 0.321 ± 0.11.

For LYHVLGLDKNATSDDIKKSYRKLAMKYHPDKNPDNPEAADKFKEINNAHAILTDATKRNIYD [L25M], which abundance fitness is on record?
The abundance fitness was -0.101 ± 0.078.

Which abundance fitness does the source give for LYHVLGLDKNATSDDIKKSYRKLACKYHPDKNPDNPEAADKFKEINNAHAILTDATKRNIYD [L25C] here?
Its abundance fitness is -0.102 ± 0.11.

Which abundance fitness does the source give for LYHVLGLDKNATSDDIKKSYRKLASKYHPDKNPDNPEAADKFKEINNAHAILTDATKRNIYD [L25S] here?
The abundance fitness was -0.377 ± 0.08.

For LYHVLGLDKNATSDDIKKSYRKLAPKYHPDKNPDNPEAADKFKEINNAHAILTDATKRNIYD [L25P], which abundance fitness is on record?
Its abundance fitness is -0.21 ± 0.095.

With LYHVLGLDKNATSDDIKKSYRKLAFKYHPDKNPDNPEAADKFKEINNAHAILTDATKRNIYD [L25F] as the variant, how does the abundance fitness read?
Its abundance fitness is -0.068 ± 0.085.

Which abundance fitness does the source give for LYHVLGLDKNATSDDIKKSYRKLARKYHPDKNPDNPEAADKFKEINNAHAILTDATKRNIYD [L25R] here?
Its abundance fitness is -0.069 ± 0.067.

Which abundance fitness does the source give for LYHVLGLDKNATSDDIKKSYRKLAVKYHPDKNPDNPEAADKFKEINNAHAILTDATKRNIYD [L25V] here?
Its abundance fitness is -0.007 ± 0.065.

For LYHVLGLDKNATSDDIKKSYRKLAGKYHPDKNPDNPEAADKFKEINNAHAILTDATKRNIYD [L25G], which abundance fitness is on record?
The abundance fitness was -0.293 ± 0.064.

For LYHVLGLDKNATSDDIKKSYRKLATKYHPDKNPDNPEAADKFKEINNAHAILTDATKRNIYD [L25T], which abundance fitness is on record?
Its abundance fitness is -0.025 ± 0.096.

With LYHVLGLDKNATSDDIKKSYRKLAQKYHPDKNPDNPEAADKFKEINNAHAILTDATKRNIYD [L25Q] as the variant, how does the abundance fitness read?
The abundance fitness was 0.024 ± 0.11.

For LYHVLGLDKNATSDDIKKSYRKLAYKYHPDKNPDNPEAADKFKEINNAHAILTDATKRNIYD [L25Y], which abundance fitness is on record?
The abundance fitness was -0.299 ± 0.12.

Which abundance fitness does the source give for LYHVLGLDKNATSDDIKKSYRKLADKYHPDKNPDNPEAADKFKEINNAHAILTDATKRNIYD [L25D] here?
Its abundance fitness is 0.17 ± 0.089.

Which abundance fitness does the source give for LYHVLGLDKNATSDDIKKSYRKLALKYWPDKNPDNPEAADKFKEINNAHAILTDATKRNIYD [H28W] here?
The abundance fitness was -0.474 ± 0.35.

Which abundance fitness does the source give for LYHVLGLDKNATSDDIKKSYRKLALKYGPDKNPDNPEAADKFKEINNAHAILTDATKRNIYD [H28G] here?
The abundance fitness was -0.037 ± 0.12.

For LYHVLGLDKNATSDDIKKSYRKLALKYLPDKNPDNPEAADKFKEINNAHAILTDATKRNIYD [H28L], which abundance fitness is on record?
The abundance fitness was -0.536 ± 0.16.

With LYHVLGLDKNATSDDIKKSYRKLALKYDPDKNPDNPEAADKFKEINNAHAILTDATKRNIYD [H28D] as the variant, how does the abundance fitness read?
Its abundance fitness is 0.062 ± 0.16.

For LYHVLGLDKNATSDDIKKSYRKLALKYAPDKNPDNPEAADKFKEINNAHAILTDATKRNIYD [H28A], which abundance fitness is on record?
The abundance fitness was -0.06 ± 0.26.

For LYHVLGLDKNATSDDIKKSYRKLALKYEPDKNPDNPEAADKFKEINNAHAILTDATKRNIYD [H28E], which abundance fitness is on record?
Its abundance fitness is 0.179 ± 0.29.

Which abundance fitness does the source give for LYHVLGLDKNATSDDIKKSYRKLALKYQPDKNPDNPEAADKFKEINNAHAILTDATKRNIYD [H28Q] here?
Its abundance fitness is 0.34 ± 0.34.

With LYHVLGLDKNATSDDIKKSYRKLALKYVPDKNPDNPEAADKFKEINNAHAILTDATKRNIYD [H28V] as the variant, how does the abundance fitness read?
The abundance fitness was -0.459 ± 0.17.

Which abundance fitness does the source give for LYHVLGLDKNATSDDIKKSYRKLALKYKPDKNPDNPEAADKFKEINNAHAILTDATKRNIYD [H28K] here?
Its abundance fitness is 0.134 ± 0.2.

Which abundance fitness does the source give for LYHVLGLDKNATSDDIKKSYRKLALKYCPDKNPDNPEAADKFKEINNAHAILTDATKRNIYD [H28C] here?
The abundance fitness was -0.29 ± 0.29.

With LYHVLGLDKNATSDDIKKSYRKLALKYRPDKNPDNPEAADKFKEINNAHAILTDATKRNIYD [H28R] as the variant, how does the abundance fitness read?
The abundance fitness was -0.194 ± 0.17.

With LYHVLGLDKNATSDDIKKSYRKLALKYFPDKNPDNPEAADKFKEINNAHAILTDATKRNIYD [H28F] as the variant, how does the abundance fitness read?
Its abundance fitness is -0.541 ± 0.28.

Which abundance fitness does the source give for LYHVLGLDKNATSDDIKKSYRKLALKYSPDKNPDNPEAADKFKEINNAHAILTDATKRNIYD [H28S] here?
The abundance fitness was 0.219 ± 0.15.

Which abundance fitness does the source give for LYHVLGLDKNATSDDIKKSYRKLALKYYPDKNPDNPEAADKFKEINNAHAILTDATKRNIYD [H28Y] here?
Its abundance fitness is -0.409 ± 0.13.

With LYHVLGLDKNATSDDIKKSYRKLALKYHWDKNPDNPEAADKFKEINNAHAILTDATKRNIYD [P29W] as the variant, how does the abundance fitness read?
Its abundance fitness is -0.66 ± 0.077.

For LYHVLGLDKNATSDDIKKSYRKLALKYHIDKNPDNPEAADKFKEINNAHAILTDATKRNIYD [P29I], which abundance fitness is on record?
Its abundance fitness is -0.57 ± 0.095.

Which abundance fitness does the source give for LYHVLGLDKNATSDDIKKSYRKLALKYHGDKNPDNPEAADKFKEINNAHAILTDATKRNIYD [P29G] here?
Its abundance fitness is -0.381 ± 0.064.

For LYHVLGLDKNATSDDIKKSYRKLALKYHMDKNPDNPEAADKFKEINNAHAILTDATKRNIYD [P29M], which abundance fitness is on record?
Its abundance fitness is -0.386 ± 0.084.

With LYHVLGLDKNATSDDIKKSYRKLALKYHRDKNPDNPEAADKFKEINNAHAILTDATKRNIYD [P29R] as the variant, how does the abundance fitness read?
Its abundance fitness is -0.422 ± 0.055.

For LYHVLGLDKNATSDDIKKSYRKLALKYHYDKNPDNPEAADKFKEINNAHAILTDATKRNIYD [P29Y], which abundance fitness is on record?
Its abundance fitness is -0.413 ± 0.097.

Which abundance fitness does the source give for LYHVLGLDKNATSDDIKKSYRKLALKYHDDKNPDNPEAADKFKEINNAHAILTDATKRNIYD [P29D] here?
The abundance fitness was -0.111 ± 0.092.

With LYHVLGLDKNATSDDIKKSYRKLALKYHHDKNPDNPEAADKFKEINNAHAILTDATKRNIYD [P29H] as the variant, how does the abundance fitness read?
The abundance fitness was -0.539 ± 0.11.

With LYHVLGLDKNATSDDIKKSYRKLALKYHLDKNPDNPEAADKFKEINNAHAILTDATKRNIYD [P29L] as the variant, how does the abundance fitness read?
Its abundance fitness is -0.472 ± 0.066.

For LYHVLGLDKNATSDDIKKSYRKLALKYHNDKNPDNPEAADKFKEINNAHAILTDATKRNIYD [P29N], which abundance fitness is on record?
The abundance fitness was -0.278 ± 0.067.

With LYHVLGLDKNATSDDIKKSYRKLALKYHFDKNPDNPEAADKFKEINNAHAILTDATKRNIYD [P29F] as the variant, how does the abundance fitness read?
Its abundance fitness is -0.542 ± 0.11.

With LYHVLGLDKNATSDDIKKSYRKLALKYHCDKNPDNPEAADKFKEINNAHAILTDATKRNIYD [P29C] as the variant, how does the abundance fitness read?
The abundance fitness was -0.42 ± 0.11.
